Experimental data taken from PMC6104806 (Nature structural & molecular biology, 2018).
Where two headings read alike, the source gives them in different places.

What was measured:
SEC [1] = biological target: the molecule itself; experiment: SEC
SEC [2] = biological target: the molecule itself; experiment: SEC; remark: listed apart in the source

B1: CmDnm1 (native), mitochondrial fission dynamin from Cyanidioschyzon merolae (natural protein, UniProt Q84Y91 1-768, looked up)
chain: MERLIPIVNKLQDLFAETGLDSPIDLPQIMVVGAQSSGKSSVLENVVGESIFPRGTGIVTRRPIVVQLYCTARERLNQSGAPDNMFNEDGSYVLSDGAPTDPRSIPPGAENQAYAEFLHKPGVRFYNFDDVRAEIERETDRVTGKNKGISPKAINLRVYSPHVVNLTVVDLPGLTKVPVGDQPSDIERLIRAMVLSYIERPNAIILAVHPATMDLATSDALQIARQADPEGRRTLGVITKLDLMDKGTDAMEMLTGKVIPLKLGYIGVICRGPADLRAGKSIQQAREDEIRFFRSHPVYRRLLPQLGTNTLARTLSTLLMKHIRDTLPSIRQKMSQQLAEWRKELQTLGPAFEGADDLGGALLNVINRYSSEFAKSLEGNSQQTVNTQELYGGARINYIFNDIYAKELQSMNAFEGLTREDIRTAIRNATGHRSPLFVPELAFELLVKKQITHFVPPAYSCVDLVYDELVRLALNCETELLQRYENLRSEILACAQNLLRELKQPCLEMVQNLIAMETSYISVNHKDFIGGNKAMSQLVRARMEEEERRTRSAKAANSTDNAANSAPKESNANDNRILQPRRRNQDENAKKNDDARRKDDKSPNKTDASNAEKDARSDRNPRGDPTMDNFFNEADEDEEDGNERRNRGLHTLPSVPEHLKAGEVSSDRDRDDIELIQTLLASYFDVVRVNMMDMVPKAIMSFLVLRARDRMQSRLVADLYKPERMSELLNESSDVAERRATAKRMVDLLQRGMAVINEVRDVHVKEEI
For B1, which “stoichiometry N” value (SEC [1]) is on record?
Its value is 4.

B2: CmDnm1 GHRS431-434AAAA, self-assembly limiting stalk mutant (natural protein, Cyanidioschyzon merolae, UniProt Q84Y91 1-768, looked up)
chain: MERLIPIVNKLQDLFAETGLDSPIDLPQIMVVGAQSSGKSSVLENVVGESIFPRGTGIVTRRPIVVQLYCTARERLNQSGAPDNMFNEDGSYVLSDGAPTDPRSIPPGAENQAYAEFLHKPGVRFYNFDDVRAEIERETDRVTGKNKGISPKAINLRVYSPHVVNLTVVDLPGLTKVPVGDQPSDIERLIRAMVLSYIERPNAIILAVHPATMDLATSDALQIARQADPEGRRTLGVITKLDLMDKGTDAMEMLTGKVIPLKLGYIGVICRGPADLRAGKSIQQAREDEIRFFRSHPVYRRLLPQLGTNTLARTLSTLLMKHIRDTLPSIRQKMSQQLAEWRKELQTLGPAFEGADDLGGALLNVINRYSSEFAKSLEGNSQQTVNTQELYGGARINYIFNDIYAKELQSMNAFEGLTREDIRTAIRNATAAAAPLFVPELAFELLVKKQITHFVPPAYSCVDLVYDELVRLALNCETELLQRYENLRSEILACAQNLLRELKQPCLEMVQNLIAMETSYISVNHKDFIGGNKAMSQLVRARMEEEERRTRSAKAANSTDNAANSAPKESNANDNRILQPRRRNQDENAKKNDDARRKDDKSPNKTDASNAEKDARSDRNPRGDPTMDNFFNEADEDEEDGNERRNRGLHTLPSVPEHLKAGEVSSDRDRDDIELIQTLLASYFDVVRVNMMDMVPKAIMSFLVLRARDRMQSRLVADLYKPERMSELLNESSDVAERRATAKRMVDLLQRGMAVINEVRDVHVKEEI
B2 was tested. Which “stoichiometry N” value (SEC [2]) did it give?
Its value is 4.
